B1: SX13-12 (CAR49) (antibody)
chain: QLVESGGGLVKPGGSLRLSCAASGFTFSDYSMNWVRQAPGKGLNWVASISSSSHYKYYADSVKGRFTISRDNAKNSLYLQMNSLRAEDTAVYYCARGIDFFDIWGQGTMVTVSSSGGGGSGGGGSGGGGSDIQLTQSPSFLSASVGDRVTITCRASQDINSYLVWYQQKPGKAPKLLIYTASTLQSGVPSRFSGSGSGTEFTLTIRSLQPEDFATYYCQQLNSYPRTFGQGTKVEIK
B2: SX13-10 (CAR48) (antibody)
chain: QLLESGGGLVKPGGSLRLSCAASGFTFSRYNMNWVRQAPGKGLEWVSFISGSSSYVYYADSVKGRFTISKDNAKNSLYLQMNSLRAEDTAVYYCARSGYCTSTTCYNYYYYYMDVWGKGTTVTVSSSGGGGSGGGGSGGGGSEIVLMQSPGTLSLSPGERATLSCRASQSVSNSYLAWYQQKPGQAPRLLIYGASSRATGIPDRFSGSGSGTDFTLTISRLEPEDFAVFYCQQFGSSPLTFGGGTKVEIK
B3: SX13-7 (CAR46) (antibody)
chain: QLVESGGGLVKPGGSLRLSCAASGFTFSDYSMNWVRQAPGKGLEWVSSISSSSSYKKYADSVKGRLTISRDNAKNSLYLQMNSLRAEDTAVYYCARGIDYFDYWGQGTLVTVSSSGGGGSGGGGSGGGGSDIQLTQSPSFLSASVGDRVTITCRASQGISSNLAWYQQKPGKDPKVLIYGASTLQSGVPSRFSGSGSGTEFTLTISSLQPEDFATYYCQQLNSYPRTFGQGTKVEIK
B4: SX13-1 (CAR42) (antibody)
chain: QLVESGGGLVKPGGSLRLSCAASGFTFSDYSMNWVRQAPGKGLEWVSSISSSSRYKYYADSMKGRFTISRDNAKNSLYLQMNSLRVEDTAVYYCTRGIDYFDYWGQGTLVTVSSSGGGGSGGGGSGGGGSDIQLTQSPSFLSASVGDRVTITCRASQDINNYLAWYQQKPGKAPKFLIHVASTLQSGVPSRFSGSGSGTEFTLTISSLQPEDSATYYCQQLNSYPRTFGQGTKVEIK

The target of the experiment is ENPP3 (human).
ENPP3 (human), sequence (chain, as listed by the source): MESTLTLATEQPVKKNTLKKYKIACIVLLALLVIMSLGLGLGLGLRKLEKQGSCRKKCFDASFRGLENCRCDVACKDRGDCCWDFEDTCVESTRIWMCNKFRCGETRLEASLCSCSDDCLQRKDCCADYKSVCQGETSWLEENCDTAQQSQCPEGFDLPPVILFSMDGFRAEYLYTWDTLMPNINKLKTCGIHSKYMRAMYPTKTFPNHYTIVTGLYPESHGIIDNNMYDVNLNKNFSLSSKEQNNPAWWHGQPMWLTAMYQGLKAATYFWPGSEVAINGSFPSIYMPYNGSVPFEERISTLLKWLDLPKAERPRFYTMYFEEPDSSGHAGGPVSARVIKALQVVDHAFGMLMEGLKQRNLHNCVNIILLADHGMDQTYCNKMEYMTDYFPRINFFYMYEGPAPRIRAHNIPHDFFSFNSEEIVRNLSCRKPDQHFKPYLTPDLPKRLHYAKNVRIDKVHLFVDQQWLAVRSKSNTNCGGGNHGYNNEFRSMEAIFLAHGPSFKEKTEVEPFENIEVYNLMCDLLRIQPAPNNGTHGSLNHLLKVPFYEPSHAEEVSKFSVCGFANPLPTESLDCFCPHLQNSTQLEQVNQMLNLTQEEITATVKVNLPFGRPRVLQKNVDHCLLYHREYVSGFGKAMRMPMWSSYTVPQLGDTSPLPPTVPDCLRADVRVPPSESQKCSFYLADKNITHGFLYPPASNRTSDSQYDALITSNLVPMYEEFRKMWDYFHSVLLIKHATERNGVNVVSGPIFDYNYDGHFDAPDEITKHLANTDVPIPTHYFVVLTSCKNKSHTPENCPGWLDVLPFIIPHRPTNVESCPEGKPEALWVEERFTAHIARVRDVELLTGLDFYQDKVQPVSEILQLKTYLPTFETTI
Broadly, the Kd is a measure of binding affinity in units of concentration. The molecule B1 displayed a Kd of 23.5 nM.

Take B2: the dissociation constant Kd was found to be 113 nM.

Take B3: the Kd turned out to be 4.24 nM.

B4: the Kd came out at 18.9 nM.

Values taken from US20260315592 (published 2026).
